In publication PMC4460075, “ULK2 Ser 1027 Phosphorylation by PKA Regulates Its Nuclear Localization Occurring through Karyopherin Beta 2 Recognition of a PY-NLS Motif” (PLoS ONE, 2015):

Molecular target: T1, karyopherin beta 2 (Kapβ2), endogenous (human (endogenous in HEK293), UniProt Q92973 1-898)
T1 sequence (looked up): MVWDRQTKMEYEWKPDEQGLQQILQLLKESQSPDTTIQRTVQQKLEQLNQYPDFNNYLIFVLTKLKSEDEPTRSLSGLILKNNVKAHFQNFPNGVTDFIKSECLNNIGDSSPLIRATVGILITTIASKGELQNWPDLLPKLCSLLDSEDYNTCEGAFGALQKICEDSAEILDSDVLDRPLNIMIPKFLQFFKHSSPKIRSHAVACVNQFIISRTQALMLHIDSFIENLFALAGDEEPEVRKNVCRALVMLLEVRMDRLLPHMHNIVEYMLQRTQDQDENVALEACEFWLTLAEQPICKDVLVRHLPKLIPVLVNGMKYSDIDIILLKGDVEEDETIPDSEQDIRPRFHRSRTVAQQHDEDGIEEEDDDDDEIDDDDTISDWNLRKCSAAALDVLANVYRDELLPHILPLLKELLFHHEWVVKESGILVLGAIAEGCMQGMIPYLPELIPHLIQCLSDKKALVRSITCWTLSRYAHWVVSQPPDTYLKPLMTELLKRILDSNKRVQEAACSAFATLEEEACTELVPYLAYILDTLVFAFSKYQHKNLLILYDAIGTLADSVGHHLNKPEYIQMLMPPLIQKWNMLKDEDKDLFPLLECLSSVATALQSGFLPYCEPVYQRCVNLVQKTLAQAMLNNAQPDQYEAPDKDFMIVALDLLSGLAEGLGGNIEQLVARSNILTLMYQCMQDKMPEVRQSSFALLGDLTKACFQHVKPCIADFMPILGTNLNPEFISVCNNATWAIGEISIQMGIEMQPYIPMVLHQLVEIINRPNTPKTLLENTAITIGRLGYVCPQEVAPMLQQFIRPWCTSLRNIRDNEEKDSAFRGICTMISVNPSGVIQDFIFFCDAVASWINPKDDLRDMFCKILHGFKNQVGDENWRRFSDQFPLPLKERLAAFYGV
Experiment: cell-based or functional assay

B1: EGFP-ULK2 WT (natural protein, human, UniProt Q8IYT8 1-1036, looked up)
chain: MEVVGDFEYSKRDLVGHGAFAVVFRGRHRQKTDWEVAIKSINKKNLSKSQILLGKEIKILKELQHENIVALYDVQELPNSVFLVMEYCNGGDLADYLQAKGTLSEDTIRVFLHQIAAAMRILHSKGIIHRDLKPQNILLSYANRRKSSVSGIRIKIADFGFARYLHSNMMAATLCGSPMYMAPEVIMSQHYDAKADLWSIGTVIYQCLVGKPPFQANSPQDLRMFYEKNRSLMPSIPRETSPYLANLLLGLLQRNQKDRMDFEAFFSHPFLEQGPVKKSCPVPVPMYSGSVSGSSCGSSPSCRFASPPSLPDMQHIQEENLSSPPLGPPNYLQVSKDSASTSSKNSSCDTDDFVLVPHNISSDHSCDMPVGTAGRRASNEFLVCGGQCQPTVSPHSETAPIPVPTQIRNYQRIEQNLTSTASSGTNVHGSPRSAVVRRSNTSPMGFLRPGSCSPVPADTAQTVGRRLSTGSSRPYSPSPLVGTIPEQFSQCCCGHPQGHDSRSRNSSGSPVPQAQSPQSLLSGARLQSAPTLTDIYQNKQKLRKQHSDPVCPSHTGAGYSYSPQPSRPGSLGTSPTKHLGSSPRSSDWFFKTPLPTIIGSPTKTTAPFKIPKTQASSNLLALVTRHGPAEEQSKDGNEPRECAHCLLVQGSERQRAEQQSKAVFGRSVSTGKLSDQQGKTPICRHQGSTDSLNTERPMDIAPAGACGGVLAPPAGTAASSKAVLFTVGSPPHSAAAPTCTHMFLRTRTTSVGPSNSGGSLCAMSGRVCVGSPPGPGFGSSPPGAEAAPSLRYVPYGASPPSLEGLITFEAPELPEETLMEREHTDTLRHLNVMLMFTECVLDLTAMRGGNPELCTSAVSLYQIQESVVVDQISQLSKDWGRVEQLVLYMKAAQLLAASLHLAKAQIKSGKLSPSTAVKQVVKNLNERYKFCITMCKKLTEKLNRFFSDKQRFIDEINSVTAEKLIYNCAVEMVQSAALDEMFQQTEDIVYRYHKAALLLEGLSRILQDPADIENVHKYKCSIERRLSALCHSTATV
  nuclear-to-total fluorescence ratio (Fn/t) of EGFP-ULK2 WT in HEK293 cells, confocal microscopy (Fig 3D): 44.5

B2: EGFP-ULK2 P242A mutant (natural protein, human, UniProt Q8IYT8 1-1036, looked up)
chain: MEVVGDFEYSKRDLVGHGAFAVVFRGRHRQKTDWEVAIKSINKKNLSKSQILLGKEIKILKELQHENIVALYDVQELPNSVFLVMEYCNGGDLADYLQAKGTLSEDTIRVFLHQIAAAMRILHSKGIIHRDLKPQNILLSYANRRKSSVSGIRIKIADFGFARYLHSNMMAATLCGSPMYMAPEVIMSQHYDAKADLWSIGTVIYQCLVGKPPFQANSPQDLRMFYEKNRSLMPSIPRETSAYLANLLLGLLQRNQKDRMDFEAFFSHPFLEQGPVKKSCPVPVPMYSGSVSGSSCGSSPSCRFASPPSLPDMQHIQEENLSSPPLGPPNYLQVSKDSASTSSKNSSCDTDDFVLVPHNISSDHSCDMPVGTAGRRASNEFLVCGGQCQPTVSPHSETAPIPVPTQIRNYQRIEQNLTSTASSGTNVHGSPRSAVVRRSNTSPMGFLRPGSCSPVPADTAQTVGRRLSTGSSRPYSPSPLVGTIPEQFSQCCCGHPQGHDSRSRNSSGSPVPQAQSPQSLLSGARLQSAPTLTDIYQNKQKLRKQHSDPVCPSHTGAGYSYSPQPSRPGSLGTSPTKHLGSSPRSSDWFFKTPLPTIIGSPTKTTAPFKIPKTQASSNLLALVTRHGPAEEQSKDGNEPRECAHCLLVQGSERQRAEQQSKAVFGRSVSTGKLSDQQGKTPICRHQGSTDSLNTERPMDIAPAGACGGVLAPPAGTAASSKAVLFTVGSPPHSAAAPTCTHMFLRTRTTSVGPSNSGGSLCAMSGRVCVGSPPGPGFGSSPPGAEAAPSLRYVPYGASPPSLEGLITFEAPELPEETLMEREHTDTLRHLNVMLMFTECVLDLTAMRGGNPELCTSAVSLYQIQESVVVDQISQLSKDWGRVEQLVLYMKAAQLLAASLHLAKAQIKSGKLSPSTAVKQVVKNLNERYKFCITMCKKLTEKLNRFFSDKQRFIDEINSVTAEKLIYNCAVEMVQSAALDEMFQQTEDIVYRYHKAALLLEGLSRILQDPADIENVHKYKCSIERRLSALCHSTATV
  nuclear-to-total fluorescence ratio (Fn/t) of the EGFP-ULK2 P242A mutant in HEK293 cells, confocal microscopy (Fig 3D): 67.2

B3: EGFP-ULK2 PY-NLS mutant (P794A) (natural protein, human, UniProt Q8IYT8 1-1036, looked up)
chain: MEVVGDFEYSKRDLVGHGAFAVVFRGRHRQKTDWEVAIKSINKKNLSKSQILLGKEIKILKELQHENIVALYDVQELPNSVFLVMEYCNGGDLADYLQAKGTLSEDTIRVFLHQIAAAMRILHSKGIIHRDLKPQNILLSYANRRKSSVSGIRIKIADFGFARYLHSNMMAATLCGSPMYMAPEVIMSQHYDAKADLWSIGTVIYQCLVGKPPFQANSPQDLRMFYEKNRSLMPSIPRETSPYLANLLLGLLQRNQKDRMDFEAFFSHPFLEQGPVKKSCPVPVPMYSGSVSGSSCGSSPSCRFASPPSLPDMQHIQEENLSSPPLGPPNYLQVSKDSASTSSKNSSCDTDDFVLVPHNISSDHSCDMPVGTAGRRASNEFLVCGGQCQPTVSPHSETAPIPVPTQIRNYQRIEQNLTSTASSGTNVHGSPRSAVVRRSNTSPMGFLRPGSCSPVPADTAQTVGRRLSTGSSRPYSPSPLVGTIPEQFSQCCCGHPQGHDSRSRNSSGSPVPQAQSPQSLLSGARLQSAPTLTDIYQNKQKLRKQHSDPVCPSHTGAGYSYSPQPSRPGSLGTSPTKHLGSSPRSSDWFFKTPLPTIIGSPTKTTAPFKIPKTQASSNLLALVTRHGPAEEQSKDGNEPRECAHCLLVQGSERQRAEQQSKAVFGRSVSTGKLSDQQGKTPICRHQGSTDSLNTERPMDIAPAGACGGVLAPPAGTAASSKAVLFTVGSPPHSAAAPTCTHMFLRTRTTSVGPSNSGGSLCAMSGRVCVGSPPGPGFGSSPPGAEAAPSLRYVAYGASPPSLEGLITFEAPELPEETLMEREHTDTLRHLNVMLMFTECVLDLTAMRGGNPELCTSAVSLYQIQESVVVDQISQLSKDWGRVEQLVLYMKAAQLLAASLHLAKAQIKSGKLSPSTAVKQVVKNLNERYKFCITMCKKLTEKLNRFFSDKQRFIDEINSVTAEKLIYNCAVEMVQSAALDEMFQQTEDIVYRYHKAALLLEGLSRILQDPADIENVHKYKCSIERRLSALCHSTATV
  nuclear-to-total fluorescence ratio (Fn/t) of the EGFP-ULK2 PY-NLS (P794A) mutant in HEK293 cells, confocal microscopy (Fig 3D): 17.1

B4: Uncoordinated 51-like kinase 2 (ULK2), endogenous (natural protein, human (endogenous in HEK293), UniProt Q8IYT8 1-1036, looked up)
chain: MEVVGDFEYSKRDLVGHGAFAVVFRGRHRQKTDWEVAIKSINKKNLSKSQILLGKEIKILKELQHENIVALYDVQELPNSVFLVMEYCNGGDLADYLQAKGTLSEDTIRVFLHQIAAAMRILHSKGIIHRDLKPQNILLSYANRRKSSVSGIRIKIADFGFARYLHSNMMAATLCGSPMYMAPEVIMSQHYDAKADLWSIGTVIYQCLVGKPPFQANSPQDLRMFYEKNRSLMPSIPRETSPYLANLLLGLLQRNQKDRMDFEAFFSHPFLEQGPVKKSCPVPVPMYSGSVSGSSCGSSPSCRFASPPSLPDMQHIQEENLSSPPLGPPNYLQVSKDSASTSSKNSSCDTDDFVLVPHNISSDHSCDMPVGTAGRRASNEFLVCGGQCQPTVSPHSETAPIPVPTQIRNYQRIEQNLTSTASSGTNVHGSPRSAVVRRSNTSPMGFLRPGSCSPVPADTAQTVGRRLSTGSSRPYSPSPLVGTIPEQFSQCCCGHPQGHDSRSRNSSGSPVPQAQSPQSLLSGARLQSAPTLTDIYQNKQKLRKQHSDPVCPSHTGAGYSYSPQPSRPGSLGTSPTKHLGSSPRSSDWFFKTPLPTIIGSPTKTTAPFKIPKTQASSNLLALVTRHGPAEEQSKDGNEPRECAHCLLVQGSERQRAEQQSKAVFGRSVSTGKLSDQQGKTPICRHQGSTDSLNTERPMDIAPAGACGGVLAPPAGTAASSKAVLFTVGSPPHSAAAPTCTHMFLRTRTTSVGPSNSGGSLCAMSGRVCVGSPPGPGFGSSPPGAEAAPSLRYVPYGASPPSLEGLITFEAPELPEETLMEREHTDTLRHLNVMLMFTECVLDLTAMRGGNPELCTSAVSLYQIQESVVVDQISQLSKDWGRVEQLVLYMKAAQLLAASLHLAKAQIKSGKLSPSTAVKQVVKNLNERYKFCITMCKKLTEKLNRFFSDKQRFIDEINSVTAEKLIYNCAVEMVQSAALDEMFQQTEDIVYRYHKAALLLEGLSRILQDPADIENVHKYKCSIERRLSALCHSTATV
  nuclear-to-total fluorescence ratio (Fn/t) of endogenous ULK2 in FSK-treated HEK293 cells (normal DMEM-grown cells: 49.36+/−4.90), confocal microscopy (Fig 6Q): 52.7
  nuclear-to-total fluorescence ratio (Fn/t) of endogenous ULK2 in H89-treated HEK293 cells (normal DMEM-grown cells: 49.36+/−4.90), confocal microscopy (Fig 6Q): 35.8
